Experiments:
Assay in all cases: holdup assay
Design in all cases: key: below the threshold = too weak to quantify, mostly under pKd 3.1 to 4
Conditions in all cases: plain residues with an end cap or a label only (N-terminal biotin on a linker: ttds)
AHNAK2, Q8IVF2 = biological target: AHNAK2, Q8IVF2
CARD14, Q9BXL6 = biological target: CARD14, Q9BXL6
GIPC1, O14908 = biological target: T1, GIPC1, O14908
T1 sequence (O14908 128-223, limits assumed, looked up): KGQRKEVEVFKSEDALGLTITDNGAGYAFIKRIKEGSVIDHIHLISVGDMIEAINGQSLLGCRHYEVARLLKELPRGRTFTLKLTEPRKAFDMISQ

GRIP1_1, Q9Y3R0 = biological target: T2, GRIP1_1, Q9Y3R0
T2 sequence (Q9Y3R0 48-146, limits assumed, looked up): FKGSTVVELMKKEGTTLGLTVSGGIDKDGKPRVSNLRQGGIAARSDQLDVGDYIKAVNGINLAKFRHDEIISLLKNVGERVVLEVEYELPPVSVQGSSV

INTU, Q9ULD6 = biological target: T3, INTU, Q9ULD6
T3 sequence (Q9ULD6 180-273, limits assumed, looked up): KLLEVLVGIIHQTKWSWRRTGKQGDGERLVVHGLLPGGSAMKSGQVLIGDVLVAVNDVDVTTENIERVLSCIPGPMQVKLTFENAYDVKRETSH

MAGI1_4, Q96QZ7 = biological target: MAGI1_4, Q96QZ7
MAGI1_4, Q96QZ7, sequence (Q96QZ7 other isoform, or with tags, fused parts or gaps): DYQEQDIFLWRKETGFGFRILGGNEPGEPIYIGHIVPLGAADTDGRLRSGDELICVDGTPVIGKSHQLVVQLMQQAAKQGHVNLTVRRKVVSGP

MAGI1_5, Q96QZ7 = biological target: MAGI1_5, Q96QZ7
MAGI1_5, Q96QZ7, sequence (Q96QZ7 986-1098): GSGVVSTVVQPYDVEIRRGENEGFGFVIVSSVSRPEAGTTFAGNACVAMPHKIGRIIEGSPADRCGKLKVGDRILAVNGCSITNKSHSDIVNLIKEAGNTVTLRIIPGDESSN

MPDZ_3, O75970 = biological target: T4, MPDZ_3, O75970
T4 sequence (O75970 372-473, limits assumed, looked up): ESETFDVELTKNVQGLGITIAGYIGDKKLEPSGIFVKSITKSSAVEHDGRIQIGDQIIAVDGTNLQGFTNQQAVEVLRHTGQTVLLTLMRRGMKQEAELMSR

MPP5, Q8N3R9 = biological target: T5, MPP5, Q8N3R9
T5 sequence (Q8N3R9 251-346, limits assumed, looked up): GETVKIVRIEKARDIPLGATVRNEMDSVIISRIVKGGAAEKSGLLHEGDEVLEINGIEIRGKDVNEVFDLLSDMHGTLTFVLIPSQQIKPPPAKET

PARD6B, Q9BYG5 = biological target: T6, PARD6B, Q9BYG5
T6 sequence (Q9BYG5 152-260, limits assumed, looked up): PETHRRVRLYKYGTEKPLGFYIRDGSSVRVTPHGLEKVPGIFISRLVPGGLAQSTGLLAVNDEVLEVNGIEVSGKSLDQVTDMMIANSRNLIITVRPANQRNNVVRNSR

PARD6G, Q9BYG4 = biological target: T7, PARD6G, Q9BYG4
T7 sequence (Q9BYG4 153-261, limits assumed, looked up): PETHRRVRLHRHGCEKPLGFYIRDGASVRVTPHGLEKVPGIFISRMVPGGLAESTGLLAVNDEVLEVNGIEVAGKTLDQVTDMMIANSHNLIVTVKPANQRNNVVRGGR

PDZD2_6, O15018 = biological target: T8, PDZD2_6, O15018
T8 sequence (O15018 2745-2839, limits assumed, looked up): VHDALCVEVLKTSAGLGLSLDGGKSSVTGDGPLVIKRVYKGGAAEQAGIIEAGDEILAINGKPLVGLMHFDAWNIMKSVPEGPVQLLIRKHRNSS

PDZD7_1, Q9H5P4 = biological target: T9, PDZD7_1, Q9H5P4
T9 sequence (Q9H5P4 81-178, limits assumed, looked up): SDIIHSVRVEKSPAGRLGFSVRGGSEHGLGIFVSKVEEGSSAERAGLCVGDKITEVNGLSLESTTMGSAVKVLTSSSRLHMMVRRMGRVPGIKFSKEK

PREX1_1, Q8TCU6 = biological target: PREX1_1, Q8TCU6
PREX1_1, Q8TCU6, sequence (Q8TCU6 608-718): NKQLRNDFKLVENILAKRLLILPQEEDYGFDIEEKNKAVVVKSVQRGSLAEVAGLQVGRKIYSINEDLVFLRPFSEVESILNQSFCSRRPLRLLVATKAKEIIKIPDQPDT

PREX2_2, Q70Z35 = biological target: T10, PREX2_2, Q70Z35
T10 sequence (Q70Z35 672-764, limits assumed, looked up): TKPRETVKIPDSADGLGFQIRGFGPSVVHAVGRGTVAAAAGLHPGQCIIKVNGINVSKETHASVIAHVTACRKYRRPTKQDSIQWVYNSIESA

RGS12, O14924 = biological target: T11, RGS12, O14924
T11 sequence (O14924 17-108, limits assumed, looked up): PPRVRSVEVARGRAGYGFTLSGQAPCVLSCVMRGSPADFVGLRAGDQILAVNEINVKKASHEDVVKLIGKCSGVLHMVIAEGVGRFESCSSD

RGS3, P49796-9 = biological target: RGS3, P49796-9
RGS3, P49796-9, sequence (P49796 other isoform, or with tags, fused parts or gaps): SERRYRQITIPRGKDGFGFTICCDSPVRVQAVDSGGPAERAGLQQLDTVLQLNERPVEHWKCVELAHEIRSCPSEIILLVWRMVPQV

RIMS1, Q86UR5 = biological target: RIMS1, Q86UR5
RIMS1, Q86UR5, sequence (Q86UR5 584-692): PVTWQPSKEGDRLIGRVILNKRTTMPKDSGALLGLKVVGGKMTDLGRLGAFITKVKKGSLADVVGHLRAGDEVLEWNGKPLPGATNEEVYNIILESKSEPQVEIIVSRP

SDCBP_1, O00560 = biological target: SDCBP_1, O00560
SDCBP_1, O00560, sequence (O00560 111-198): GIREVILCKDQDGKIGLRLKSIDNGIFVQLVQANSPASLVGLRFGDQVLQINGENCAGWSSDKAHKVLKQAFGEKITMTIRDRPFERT

TJP3_1, O95049 = biological target: T12, TJP3_1, O95049
T12 sequence (O95049 6-103, limits assumed, looked up): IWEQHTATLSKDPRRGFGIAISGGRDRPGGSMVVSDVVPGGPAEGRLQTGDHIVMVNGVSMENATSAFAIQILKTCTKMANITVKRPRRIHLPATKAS

O60759 = biological target: O60759
Q12923 = biological target: Q12923
Q8TEW0 = biological target: Q8TEW0
Q96FS4 = biological target: Q96FS4
Q96JB8 = biological target: Q96JB8
Q96JY6 = biological target: Q96JY6
Q9UMS6 = biological target: Q9UMS6

AHNAK2, Q8IVF2, sequence (Q8IVF2 108-193): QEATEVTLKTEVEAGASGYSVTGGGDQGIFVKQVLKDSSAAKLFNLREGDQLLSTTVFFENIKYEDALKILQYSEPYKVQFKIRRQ
CARD14, Q9BXL6, sequence (Q9BXL6 558-663): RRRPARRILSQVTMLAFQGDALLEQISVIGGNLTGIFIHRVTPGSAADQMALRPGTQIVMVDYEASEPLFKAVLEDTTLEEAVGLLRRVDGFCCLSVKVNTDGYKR

SSRTRRETQL [HPV16-E6, P03126]
pKd (AHNAK2, Q8IVF2): below the threshold
pKd (CARD14, Q9BXL6): below the threshold
pKd (GIPC1, O14908): 4.13
pKd (GRIP1_1, Q9Y3R0): below the threshold
pKd (INTU, Q9ULD6): below the threshold
pKd (MAGI1_4, Q96QZ7): below the threshold
pKd (MAGI1_5, Q96QZ7): 4.69
pKd (MPDZ_3, O75970): below the threshold
pKd (MPP5, Q8N3R9): below the threshold
pKd (PARD6B, Q9BYG5): below the threshold
pKd (PARD6G, Q9BYG4): below the threshold
pKd (PDZD2_6, O15018): below the threshold
pKd (PDZD7_1, Q9H5P4): below the threshold
pKd (PREX1_1, Q8TCU6): below the threshold
pKd (PREX2_2, Q70Z35): below the threshold
pKd (RGS12, O14924): 4.37
pKd (RGS3, P49796-9): below the threshold
pKd (RIMS1, Q86UR5): below the threshold
pKd (SDCBP_1, O00560): below the threshold
pKd (TJP3_1, O95049): below the threshold

SVWLRKETRV [CYSLTR2, Q9NS75]
pKd (AHNAK2, Q8IVF2): below the threshold
pKd (CARD14, Q9BXL6): below the threshold
pKd (GIPC1, O14908): below the threshold
pKd (GRIP1_1, Q9Y3R0): below the threshold
pKd (INTU, Q9ULD6): below the threshold
pKd (MAGI1_4, Q96QZ7): below the threshold
pKd (MAGI1_5, Q96QZ7): 4.57
pKd (MPDZ_3, O75970): below the threshold
pKd (MPP5, Q8N3R9): below the threshold
pKd (O60759): below the threshold
pKd (PARD6B, Q9BYG5): below the threshold
pKd (PARD6G, Q9BYG4): below the threshold
pKd (PDZD2_6, O15018): below the threshold
pKd (PDZD7_1, Q9H5P4): below the threshold
pKd (PREX1_1, Q8TCU6): below the threshold
pKd (PREX2_2, Q70Z35): below the threshold
pKd (Q12923): below the threshold
pKd (Q8TEW0): below the threshold
pKd (Q96FS4): below the threshold
pKd (Q96JB8): below the threshold
pKd (Q96JY6): below the threshold
pKd (Q9UMS6): below the threshold
pKd (RGS12, O14924): below the threshold
pKd (RGS3, P49796-9): below the threshold
pKd (RIMS1, Q86UR5): below the threshold
pKd (SDCBP_1, O00560): below the threshold
pKd (TJP3_1, O95049): below the threshold

SRPQRTQTQV [HPV67-E6, A4U7F2]
pKd (AHNAK2, Q8IVF2): below the threshold
pKd (CARD14, Q9BXL6): below the threshold
pKd (GIPC1, O14908): below the threshold
pKd (GRIP1_1, Q9Y3R0): below the threshold
pKd (INTU, Q9ULD6): below the threshold
pKd (MAGI1_4, Q96QZ7): below the threshold
pKd (MAGI1_5, Q96QZ7): 4.35
pKd (MPDZ_3, O75970): below the threshold
pKd (MPP5, Q8N3R9): below the threshold
pKd (PARD6B, Q9BYG5): below the threshold
pKd (PARD6G, Q9BYG4): below the threshold
pKd (PDZD2_6, O15018): below the threshold
pKd (PDZD7_1, Q9H5P4): below the threshold
pKd (PREX1_1, Q8TCU6): below the threshold
pKd (PREX2_2, Q70Z35): below the threshold
pKd (RGS12, O14924): below the threshold
pKd (RGS3, P49796-9): below the threshold
pKd (RIMS1, Q86UR5): below the threshold
pKd (SDCBP_1, O00560): below the threshold
pKd (TJP3_1, O95049): below the threshold

PKTPPTDTSV [KIR3DL3, Q8N743]
pKd (AHNAK2, Q8IVF2): below the threshold
pKd (CARD14, Q9BXL6): below the threshold
pKd (GIPC1, O14908): below the threshold
pKd (GRIP1_1, Q9Y3R0): below the threshold
pKd (INTU, Q9ULD6): below the threshold
pKd (MAGI1_4, Q96QZ7): below the threshold
pKd (MAGI1_5, Q96QZ7): below the threshold
pKd (MPDZ_3, O75970): below the threshold
pKd (MPP5, Q8N3R9): below the threshold
pKd (O60759): below the threshold
pKd (PARD6B, Q9BYG5): below the threshold
pKd (PARD6G, Q9BYG4): below the threshold
pKd (PDZD2_6, O15018): below the threshold
pKd (PDZD7_1, Q9H5P4): below the threshold
pKd (PREX1_1, Q8TCU6): below the threshold
pKd (PREX2_2, Q70Z35): below the threshold
pKd (Q12923): below the threshold
pKd (Q8TEW0): below the threshold
pKd (Q96FS4): below the threshold
pKd (Q96JB8): below the threshold
pKd (Q96JY6): below the threshold
pKd (Q9UMS6): below the threshold
pKd (RGS12, O14924): below the threshold
pKd (RGS3, P49796-9): below the threshold
pKd (RIMS1, Q86UR5): below the threshold
pKd (SDCBP_1, O00560): below the threshold
pKd (TJP3_1, O95049): below the threshold

RSLEEEESQL [GRASP, Q7Z6J2]
pKd (AHNAK2, Q8IVF2): 4.3
pKd (CARD14, Q9BXL6): below the threshold
pKd (GIPC1, O14908): 4.1
pKd (GRIP1_1, Q9Y3R0): below the threshold
pKd (MAGI1_4, Q96QZ7): below the threshold
pKd (MAGI1_5, Q96QZ7): below the threshold
pKd (MPDZ_3, O75970): below the threshold
pKd (MPP5, Q8N3R9): below the threshold
pKd (O60759): below the threshold
pKd (PARD6B, Q9BYG5): below the threshold
pKd (PARD6G, Q9BYG4): below the threshold
pKd (PDZD2_6, O15018): below the threshold
pKd (PDZD7_1, Q9H5P4): below the threshold
pKd (PREX1_1, Q8TCU6): 4.08
pKd (PREX2_2, Q70Z35): below the threshold
pKd (Q12923): below the threshold
pKd (Q8TEW0): below the threshold
pKd (Q96FS4): below the threshold
pKd (Q96JB8): below the threshold
pKd (Q96JY6): below the threshold
pKd (Q9UMS6): below the threshold
pKd (RGS12, O14924): below the threshold
pKd (RGS3, P49796-9): below the threshold
pKd (RIMS1, Q86UR5): below the threshold
pKd (SDCBP_1, O00560): below the threshold
pKd (TJP3_1, O95049): below the threshold
